The results in this text go back to the Immune Epitope Database (IEDB).

In experiment [1] the target is HLA-B*15:01. As to the kind of experiment: IEDB peptide-MHC binding, purified MHC/direct/fluorescence; filed as Kd, often an IC50 or EC50 that approximates it; ≥ and ≤ were set here for values at or beyond the usual limits of such assays.
Experiment [2] concerns the target HLA-B*46:01. Described as above.
In the next experiment the target is HLA-B*58:01. The experiment is described as above.
In experiment [3] the target is HLA-B*18:01. The description is as above.
For experiment [4], the target named is HLA-A*69:01. Described as above.
The target of the next experiment is HLA-A*11:01. The experiment is described as above.
For a further experiment, the target named is HLA-B*40:01. The experiment is described as above.
Experiment [5] has as its target HLA-B*57:01. The description is as above.
The target of a further experiment is HLA-B*48:01. The description is as above.
A further experiment deals with HLA-A*02:01. The experiment is described as above.
A further experiment deals with HLA-A*31:01. The description is as above.
A further experiment deals with HLA-B*44:02. Described as above.
Experiment [6] deals with HLA-A*03:01. The description is as above.
The target in another experiment is HLA-B*15:09. The experiment is described as above.
The target in another experiment is HLA-B*27:05. Described as above.
The next experiment concerns the target HLA-A*01:01. The description is as above.
Experiment [7] concerns the target HLA-B*15:01. Briefly: IEDB peptide-MHC binding, purified MHC/competitive/fluorescence; filed as Kd, often an IC50 or EC50 that approximates it; ≥ and ≤ were set here for values at or beyond the usual limits of such assays. The note with it: source organism: Salmonella enterica subsp. enterica serovar Typhimurium str. LT2.
Experiment [8] deals with HLA-B*46:01. The description is as above. The note with it: source organism: Salmonella enterica subsp. enterica serovar Typhimurium str. LT2.
For another experiment, the target named is HLA-B*27:03. The experiment is described as above. To be noted: source organism: Salmonella enterica subsp. enterica serovar Typhimurium str. LT2.
The target of another experiment is HLA-A*29:02. The experiment is described as above. To be noted: source organism: Salmonella enterica subsp. enterica serovar Typhimurium str. LT2.
In experiment [9] the target is HLA-B*18:01. Described as above. The note with it: source organism: Salmonella enterica subsp. enterica serovar Typhimurium str. LT2.
Experiment [10] concerns the target HLA-B*39:01. The description is as above. The note with it: source organism: Salmonella enterica subsp. enterica serovar Typhimurium str. LT2.
A further experiment has as its target HLA-A*24:03. The experiment is described as above. To be noted: source organism: Salmonella enterica subsp. enterica serovar Typhimurium str. LT2.
In experiment [11] the target is HLA-A*69:01. The description is as above. The note with it: source organism: Salmonella enterica subsp. enterica serovar Typhimurium str. LT2.
Experiment [12] has as its target HLA-A*26:01. The description is as above. To be noted: source organism: Salmonella enterica subsp. enterica serovar Typhimurium str. LT2.
The target of experiment [13] is HLA-B*57:01. The description is as above. The note with it: source organism: Salmonella enterica subsp. enterica serovar Typhimurium str. LT2.
Another experiment has as its target HLA-A*23:01. The description is as above. The note with it: source organism: Salmonella enterica subsp. enterica serovar Typhimurium str. LT2.
For experiment [14], the target named is HLA-A*03:01. Described as above. To be noted: source organism: Salmonella enterica subsp. enterica serovar Typhimurium str. LT2.
Another experiment addresses HLA-A*02:19. The experiment is described as above. The note with it: source organism: Salmonella enterica subsp. enterica serovar Typhimurium str. LT2.
A further experiment addresses HLA-B*51:01. Described as above. To be noted: source organism: Salmonella enterica subsp. enterica serovar Typhimurium str. LT2.
For the next experiment, the target named is HLA-A*02:11. Described as above. To be noted: source organism: Salmonella enterica subsp. enterica serovar Typhimurium str. LT2.
In experiment [15] the target is HLA-B*15:17. The experiment is described as above. The note with it: source organism: Salmonella enterica subsp. enterica serovar Typhimurium str. LT2.
Another experiment addresses HLA-A*02:12. The experiment is described as above. To be noted: source organism: Salmonella enterica subsp. enterica serovar Typhimurium str. LT2.
Another experiment addresses HLA-A*68:02. As to the kind of experiment: IEDB peptide-MHC binding, purified MHC/direct/fluorescence; filed as Kd, often an IC50 or EC50 that approximates it; ≥ and ≤ were set here for values at or beyond the usual limits of such assays. The note with it: source organism: Burkholderia mallei.
For a further experiment, the target named is HLA-B*07:02. The description is as above.
In experiment [16] the target is HLA-B*39:01. The experiment is described as above. The note with it: source organism: Burkholderia mallei ATCC 23344.
Experiment [17] addresses HLA-A*26:01. The experiment is described as above. To be noted: source organism: Burkholderia mallei ATCC 23344.
For a further experiment, the target named is HLA-B*08:01. The description is as above.
For experiment [18], the target named is HLA-B*15:17. Described as above. The note with it: source organism: Burkholderia mallei.
A further experiment deals with HLA-A*24:02. The experiment is described as above. The note with it: source organism: Influenza A virus (A/quail/Hong Kong/FY298/00(H9N2)).
[19] abbreviates: source organism: Yellow fever virus 17D.
Where [20] appears, read: source organism: Burkholderia mallei.
[21] abbreviates: source organism: Burkholderia mallei ATCC 23344.
[22] abbreviates: source organism: Influenza A virus (A/quail/Hong Kong/FY298/00(H9N2)).

The term Kd denotes a measure of binding affinity in units of concentration. The low end stands for higher affinity, the high end for lower affinity.

A value given as a limit tells only on which side of the number the result lay.

Turning to VRGGMVAPL, the dissociation constant Kd with HLA-B*15:01 [1] (setting [19]), with HLA-B*46:01 [2] (setting [19]), with HLA-B*58:01 (setting [19]), with HLA-B*18:01 [3] (setting [19]), in the experiment with HLA-A*69:01 [4] (setting [19]) and with HLA-A*11:01 (setting [19]) was at least 20 µM throughout. The Kd with HLA-B*40:01 (setting [19]), in the experiment with HLA-B*57:01 [5] (setting [19]), in the experiment with HLA-B*48:01 (setting [19]), in the experiment with HLA-A*02:01 (setting [19]), in the experiment with HLA-A*31:01 (setting [19]) and with HLA-B*44:02 (setting [19]) was at least 20 µM throughout. The Kd in the experiment with HLA-A*03:01 [6] (setting [19]), in the experiment with HLA-B*15:09 (source organism: Yellow fever virus), with HLA-B*27:05 (setting [19]) and in the experiment with HLA-A*01:01 (setting [19]) was at least 20 µM throughout.

Take ILNSDDEQA: the Kd is at least 20 µM with HLA-B*15:01 [7]; at least 20 µM in the experiment with HLA-B*46:01 [8]; at least 20 µM with HLA-B*27:03; 644 nM with HLA-A*29:02; at least 20 µM with HLA-B*18:01 [9]; at least 20 µM with HLA-B*39:01 [10]. The Kd in the experiment with HLA-A*24:03, in the experiment with HLA-A*69:01 [11], with HLA-A*26:01 [12], in the experiment with HLA-B*57:01 [13], in the experiment with HLA-A*23:01 and in the experiment with HLA-A*03:01 [14] was at least 20 µM throughout. Moreover, the Kd was 1630 nM with HLA-A*02:19; at least 20 µM with HLA-B*51:01; 142 nM in the experiment with HLA-A*02:11; at least 20 µM with HLA-B*15:17 [15]; at least 20 µM with HLA-A*02:12.

For FEIGNGDAG, the Kd with HLA-A*68:02, with HLA-B*15:01 [1] (setting [20]), in the experiment with HLA-B*58:01 (setting [20]), with HLA-B*07:02 (setting [20]), with HLA-B*18:01 [3] (setting [20]) and with HLA-B*39:01 [16] was at least 20 µM each time. Moreover, the Kd with HLA-A*69:01 [4] (setting [20]), with HLA-A*11:01 (setting [20]), with HLA-A*26:01 [17], in the experiment with HLA-B*40:01 (setting [20]), in the experiment with HLA-B*57:01 [5] (setting [20]) and with HLA-B*48:01 (setting [20]) was at least 20 µM in each case. The equilibrium dissociation constant (Kd) with HLA-A*02:01 (setting [20]), in the experiment with HLA-A*31:01 (setting [20]), with HLA-B*08:01 (setting [21]), in the experiment with HLA-B*44:02 (setting [20]), with HLA-A*03:01 [6] (setting [20]) and in the experiment with HLA-B*15:17 [18] was at least 20 µM in each case. In addition, the Kd with HLA-B*15:09 (setting [21]), with HLA-B*27:05 (setting [20]) and in the experiment with HLA-A*01:01 (setting [20]) was at least 20 µM each time.

Turning to ALTLNTMTK, the Kd in the experiment with HLA-B*15:01 [1] (setting [22]), with HLA-B*46:01 [2] (setting [22]), in the experiment with HLA-B*58:01 (setting [22]), in the experiment with HLA-B*07:02 (setting [22]), with HLA-B*18:01 [3] (setting [22]) and in the experiment with HLA-A*69:01 [4] (setting [22]) was at least 20 µM each time. Besides, the equilibrium dissociation constant (Kd) was at least 20 µM in the experiment with HLA-B*40:01 (setting [22]); at least 20 µM with HLA-A*02:01 (setting [22]); at least 20 µM in the experiment with HLA-B*08:01 (setting [22]); at least 20 µM in the experiment with HLA-B*44:02 (setting [22]); 0.724 µM in the experiment with HLA-A*03:01 [6] (source organism: Influenza A virus (A/Puerto Rico/8/34/Mount Sinai(H1N1))); at least 20 µM with HLA-A*24:02. The Kd in the experiment with HLA-B*15:09 (source organism: Influenza A virus(A/swine/Henan/5/2004(H9N2))), in the experiment with HLA-B*27:05 (setting [22]) and in the experiment with HLA-A*01:01 (setting [22]) was at least 20 µM in each case.
